Results taken from patent US20160272683A1 (Novo Nordisk, published 2016).
Numbered stars: 1 amine (or outer) side, 2 acyl side, 3 side chain; on linkers, the order of the positions; unused ones are H or OH. * marks the point of attachment. C20 diacid = O=C(O)CCCCCCCCCCCCCCCCCCC(=O)*; C18 diacid = O=C(O)CCCCCCCCCCCCCCCCC(=O)*; γGlu = O=C(O)[C@H](CCC(=O)[*:2])N[*:1]

T1: human amylin 3(a) receptor (human calcitonin receptor co-expressed with RAMP-3) (human, UniProt P30988 25-474; O60896 24-148, limits assumed)
T1 sequence (looked up) 1: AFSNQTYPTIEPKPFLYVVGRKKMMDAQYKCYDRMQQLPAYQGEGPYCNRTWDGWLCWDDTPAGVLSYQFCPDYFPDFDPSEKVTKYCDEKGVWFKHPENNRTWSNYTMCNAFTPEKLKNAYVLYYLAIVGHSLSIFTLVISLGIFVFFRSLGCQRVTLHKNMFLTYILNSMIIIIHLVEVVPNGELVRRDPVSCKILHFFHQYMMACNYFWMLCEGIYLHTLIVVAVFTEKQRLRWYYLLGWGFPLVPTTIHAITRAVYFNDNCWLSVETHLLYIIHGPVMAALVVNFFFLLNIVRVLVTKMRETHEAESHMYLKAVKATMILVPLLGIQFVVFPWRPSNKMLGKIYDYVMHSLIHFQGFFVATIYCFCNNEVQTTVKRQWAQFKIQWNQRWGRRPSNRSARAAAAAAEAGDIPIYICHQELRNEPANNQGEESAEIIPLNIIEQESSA
T1 sequence (looked up) 2: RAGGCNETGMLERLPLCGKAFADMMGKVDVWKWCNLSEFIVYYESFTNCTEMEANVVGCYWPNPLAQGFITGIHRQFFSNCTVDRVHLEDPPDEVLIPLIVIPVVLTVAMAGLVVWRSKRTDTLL

T2: human calcitonin receptor (human, UniProt P30988 25-474)
T2 sequence (looked up): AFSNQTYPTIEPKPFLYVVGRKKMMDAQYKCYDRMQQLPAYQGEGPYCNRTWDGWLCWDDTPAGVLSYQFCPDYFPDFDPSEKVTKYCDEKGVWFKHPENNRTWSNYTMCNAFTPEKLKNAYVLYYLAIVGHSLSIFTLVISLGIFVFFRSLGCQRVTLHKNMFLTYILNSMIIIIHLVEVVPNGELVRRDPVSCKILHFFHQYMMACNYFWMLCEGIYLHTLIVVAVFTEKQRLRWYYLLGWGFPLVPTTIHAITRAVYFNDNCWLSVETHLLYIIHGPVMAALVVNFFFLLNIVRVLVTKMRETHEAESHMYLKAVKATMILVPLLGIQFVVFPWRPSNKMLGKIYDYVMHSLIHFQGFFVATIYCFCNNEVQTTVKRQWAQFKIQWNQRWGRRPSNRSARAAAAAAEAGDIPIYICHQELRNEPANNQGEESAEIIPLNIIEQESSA

B1: [N-terminal(C20 diacid-gGlu), des1, 23Y, 30S, 31G, 34K, C-terminal(-)]mimylin (peptide)
peptide: {C20 diacid-γGlu}-ASELSTAALGRLSAELHELATYPRTETGSGSPK-OH
SMILES: CC(C)C[C@H](NC(=O)[C@H](C)NC(=O)[C@H](C)NC(=O)[C@@H](NC(=O)[C@H](CO)NC(=O)[C@H](CC(C)C)NC(=O)[C@H](CCC(=O)O)NC(=O)[C@H](CO)NC(=O)[C@H](C)NC(=O)CC[C@H](NC(=O)CCCCCCCCCCCCCCCCCCC(=O)O)C(=O)O)[C@@H](C)O)C(=O)NCC(=O)N[C@@H](CCCNC(=N)N)C(=O)N[C@@H](CC(C)C)C(=O)N[C@@H](CO)C(=O)N[C@@H](C)C(=O)N[C@@H](CCC(=O)O)C(=O)N[C@@H](CC(C)C)C(=O)N[C@@H](Cc1c[nH]cn1)C(=O)N[C@@H](CCC(=O)O)C(=O)N[C@@H](CC(C)C)C(=O)N[C@@H](C)C(=O)N[C@H](C(=O)N[C@@H](Cc1ccc(O)cc1)C(=O)N1CCC[C@H]1C(=O)N[C@@H](CCCNC(=N)N)C(=O)N[C@H](C(=O)N[C@@H](CCC(=O)O)C(=O)N[C@H](C(=O)NCC(=O)N[C@@H](CO)C(=O)NCC(=O)N[C@@H](CO)C(=O)N1CCC[C@H]1C(=O)N[C@@H](CCCCN)C(=O)O)[C@@H](C)O)[C@@H](C)O)[C@@H](C)O
B2: [N-terminal(C20 diacid-gGlu), des1, 23Y, 30S, 31G, 34G, C-terminal(-)]mimylin (peptide)
peptide: {C20 diacid-γGlu}-ASELSTAALGRLSAELHELATYPRTETGSGSPG-OH
SMILES: CC(C)C[C@H](NC(=O)[C@H](C)NC(=O)[C@H](C)NC(=O)[C@@H](NC(=O)[C@H](CO)NC(=O)[C@H](CC(C)C)NC(=O)[C@H](CCC(=O)O)NC(=O)[C@H](CO)NC(=O)[C@H](C)NC(=O)CC[C@H](NC(=O)CCCCCCCCCCCCCCCCCCC(=O)O)C(=O)O)[C@@H](C)O)C(=O)NCC(=O)N[C@@H](CCCNC(=N)N)C(=O)N[C@@H](CC(C)C)C(=O)N[C@@H](CO)C(=O)N[C@@H](C)C(=O)N[C@@H](CCC(=O)O)C(=O)N[C@@H](CC(C)C)C(=O)N[C@@H](Cc1c[nH]cn1)C(=O)N[C@@H](CCC(=O)O)C(=O)N[C@@H](CC(C)C)C(=O)N[C@@H](C)C(=O)N[C@H](C(=O)N[C@@H](Cc1ccc(O)cc1)C(=O)N1CCC[C@H]1C(=O)N[C@@H](CCCNC(=N)N)C(=O)N[C@H](C(=O)N[C@@H](CCC(=O)O)C(=O)N[C@H](C(=O)NCC(=O)N[C@@H](CO)C(=O)NCC(=O)N[C@@H](CO)C(=O)N1CCC[C@H]1C(=O)NCC(=O)O)[C@@H](C)O)[C@@H](C)O)[C@@H](C)O
B3: [N-terminal(C20 diacid-gGlu), des1, 12H, 25H, 30T, 31G, 32T]mimylin (peptide)
peptide: {C20 diacid-γGlu}-ASELSTAALGHLSAELHELATLPHTETGTGTP-NH2
SMILES: CC(C)C[C@H](NC(=O)[C@H](C)NC(=O)[C@H](C)NC(=O)[C@@H](NC(=O)[C@H](CO)NC(=O)[C@H](CC(C)C)NC(=O)[C@H](CCC(=O)O)NC(=O)[C@H](CO)NC(=O)[C@H](C)NC(=O)CC[C@H](NC(=O)CCCCCCCCCCCCCCCCCCC(=O)O)C(=O)O)[C@@H](C)O)C(=O)NCC(=O)N[C@@H](Cc1c[nH]cn1)C(=O)N[C@@H](CC(C)C)C(=O)N[C@@H](CO)C(=O)N[C@@H](C)C(=O)N[C@@H](CCC(=O)O)C(=O)N[C@@H](CC(C)C)C(=O)N[C@@H](Cc1c[nH]cn1)C(=O)N[C@@H](CCC(=O)O)C(=O)N[C@@H](CC(C)C)C(=O)N[C@@H](C)C(=O)N[C@H](C(=O)N[C@@H](CC(C)C)C(=O)N1CCC[C@H]1C(=O)N[C@@H](Cc1c[nH]cn1)C(=O)N[C@H](C(=O)N[C@@H](CCC(=O)O)C(=O)N[C@H](C(=O)NCC(=O)N[C@H](C(=O)NCC(=O)N[C@H](C(=O)N1CCC[C@H]1C(N)=O)[C@@H](C)O)[C@@H](C)O)[C@@H](C)O)[C@@H](C)O)[C@@H](C)O
B4: [N-terminal(C20 diacid-gGlu), des1, 9S, 23Y, 30S, 31G, 33Y]mimylin (peptide)
peptide: {C20 diacid-γGlu}-ASELSTASLGRLSAELHELATYPRTETGSGSY-NH2
SMILES: CC(C)C[C@H](NC(=O)[C@H](CO)NC(=O)[C@H](C)NC(=O)[C@@H](NC(=O)[C@H](CO)NC(=O)[C@H](CC(C)C)NC(=O)[C@H](CCC(=O)O)NC(=O)[C@H](CO)NC(=O)[C@H](C)NC(=O)CC[C@H](NC(=O)CCCCCCCCCCCCCCCCCCC(=O)O)C(=O)O)[C@@H](C)O)C(=O)NCC(=O)N[C@@H](CCCNC(=N)N)C(=O)N[C@@H](CC(C)C)C(=O)N[C@@H](CO)C(=O)N[C@@H](C)C(=O)N[C@@H](CCC(=O)O)C(=O)N[C@@H](CC(C)C)C(=O)N[C@@H](Cc1c[nH]cn1)C(=O)N[C@@H](CCC(=O)O)C(=O)N[C@@H](CC(C)C)C(=O)N[C@@H](C)C(=O)N[C@H](C(=O)N[C@@H](Cc1ccc(O)cc1)C(=O)N1CCC[C@H]1C(=O)N[C@@H](CCCNC(=N)N)C(=O)N[C@H](C(=O)N[C@@H](CCC(=O)O)C(=O)N[C@H](C(=O)NCC(=O)N[C@@H](CO)C(=O)NCC(=O)N[C@@H](CO)C(=O)N[C@@H](Cc1ccc(O)cc1)C(N)=O)[C@@H](C)O)[C@@H](C)O)[C@@H](C)O
B5: [N-terminal(C18 diacid-gGlu), des1, 4Q, 16Q, 30S, 31G]mimylin (peptide)
peptide: {C18 diacid-γGlu}-ASQLSTAALGRLSAQLHELATLPRTETGSGSP-NH2
SMILES: CC(C)C[C@H](NC(=O)[C@H](C)NC(=O)[C@H](C)NC(=O)[C@@H](NC(=O)[C@H](CO)NC(=O)[C@H](CC(C)C)NC(=O)[C@H](CCC(N)=O)NC(=O)[C@H](CO)NC(=O)[C@H](C)NC(=O)CC[C@H](NC(=O)CCCCCCCCCCCCCCCCC(=O)O)C(=O)O)[C@@H](C)O)C(=O)NCC(=O)N[C@@H](CCCNC(=N)N)C(=O)N[C@@H](CC(C)C)C(=O)N[C@@H](CO)C(=O)N[C@@H](C)C(=O)N[C@@H](CCC(N)=O)C(=O)N[C@@H](CC(C)C)C(=O)N[C@@H](Cc1c[nH]cn1)C(=O)N[C@@H](CCC(=O)O)C(=O)N[C@@H](CC(C)C)C(=O)N[C@@H](C)C(=O)N[C@H](C(=O)N[C@@H](CC(C)C)C(=O)N1CCC[C@H]1C(=O)N[C@@H](CCCNC(=N)N)C(=O)N[C@H](C(=O)N[C@@H](CCC(=O)O)C(=O)N[C@H](C(=O)NCC(=O)N[C@@H](CO)C(=O)NCC(=O)N[C@@H](CO)C(=O)N1CCC[C@H]1C(N)=O)[C@@H](C)O)[C@@H](C)O)[C@@H](C)O
B6: [N-terminal(C18 diacid-gGlu), des1, 6T, 9V, 30S, 31G]mimylin (peptide)
peptide: {C18 diacid-γGlu}-ASELTTAVLGRLSAELHELATLPRTETGSGSP-NH2
SMILES: CC(C)C[C@H](NC(=O)[C@H](CCC(=O)O)NC(=O)[C@H](Cc1c[nH]cn1)NC(=O)[C@H](CC(C)C)NC(=O)[C@H](CCC(=O)O)NC(=O)[C@H](C)NC(=O)[C@H](CO)NC(=O)[C@H](CC(C)C)NC(=O)[C@H](CCCNC(=N)N)NC(=O)CNC(=O)[C@H](CC(C)C)NC(=O)[C@@H](NC(=O)[C@H](C)NC(=O)[C@@H](NC(=O)[C@@H](NC(=O)[C@H](CC(C)C)NC(=O)[C@H](CCC(=O)O)NC(=O)[C@H](CO)NC(=O)[C@H](C)NC(=O)CC[C@H](NC(=O)CCCCCCCCCCCCCCCCC(=O)O)C(=O)O)[C@@H](C)O)[C@@H](C)O)C(C)C)C(=O)N[C@@H](C)C(=O)N[C@H](C(=O)N[C@@H](CC(C)C)C(=O)N1CCC[C@H]1C(=O)N[C@@H](CCCNC(=N)N)C(=O)N[C@H](C(=O)N[C@@H](CCC(=O)O)C(=O)N[C@H](C(=O)NCC(=O)N[C@@H](CO)C(=O)NCC(=O)N[C@@H](CO)C(=O)N1CCC[C@H]1C(N)=O)[C@@H](C)O)[C@@H](C)O)[C@@H](C)O
B7: [N-terminal(C20 diacid-gGlu), des1, 9T, 21S, 23Y, 30S, 31G]mimylin (peptide)
peptide: {C20 diacid-γGlu}-ASELSTATLGRLSAELHELSTYPRTETGSGSP-NH2
SMILES: CC(C)C[C@H](NC(=O)[C@H](CCCNC(=N)N)NC(=O)CNC(=O)[C@H](CC(C)C)NC(=O)[C@@H](NC(=O)[C@H](C)NC(=O)[C@@H](NC(=O)[C@H](CO)NC(=O)[C@H](CC(C)C)NC(=O)[C@H](CCC(=O)O)NC(=O)[C@H](CO)NC(=O)[C@H](C)NC(=O)CC[C@H](NC(=O)CCCCCCCCCCCCCCCCCCC(=O)O)C(=O)O)[C@@H](C)O)[C@@H](C)O)C(=O)N[C@@H](CO)C(=O)N[C@@H](C)C(=O)N[C@@H](CCC(=O)O)C(=O)N[C@@H](CC(C)C)C(=O)N[C@@H](Cc1c[nH]cn1)C(=O)N[C@@H](CCC(=O)O)C(=O)N[C@@H](CC(C)C)C(=O)N[C@@H](CO)C(=O)N[C@H](C(=O)N[C@@H](Cc1ccc(O)cc1)C(=O)N1CCC[C@H]1C(=O)N[C@@H](CCCNC(=N)N)C(=O)N[C@H](C(=O)N[C@@H](CCC(=O)O)C(=O)N[C@H](C(=O)NCC(=O)N[C@@H](CO)C(=O)NCC(=O)N[C@@H](CO)C(=O)N1CCC[C@H]1C(N)=O)[C@@H](C)O)[C@@H](C)O)[C@@H](C)O

Key:
[1] = biological target: T1, human amylin 3(a) receptor (human …); assay: cell-based or functional assay
[2] = biological target: T2, human calcitonin receptor; assay: cell-based or functional assay

Binder | hAmylin-R funct. EC50 (pM) [1] [pM] | hCTR funct. EC50 (pM) [2] [pM]
B1 | 239 | 88
B2 | 187 | 64
B3 | 64 | 24
B4 | 37 | 41
B5 | 9 | 13
B6 | 33 | 28
{C18 diacid-γGlu}-ASEVSTAVLGRLSAELHELATLPRTETGSGSP-NH2 [[N-terminal(C18 diacid-gGlu), des1, 5V, 9V, 30S, 31G]mimylin] | 32 | 13
{C20 diacid-γGlu}-ASELSTAALGRLSAELHELATYPRTETGSGSY-OH [[N-terminal(C20 diacid-gGlu), des1, 23Y, 30S, 31G, 33Y, C-terminal(-)]mimylin] | 461 | 127
B7 | 22 | 23
